Reference: patent publication US20120107952A1

Columns and labels:
[1] = target: Bovine-biotinamidocaproyl-labeled Albumin (biotinylated-BSA) (bovine) (UniProt P02769); experiment: MA-SPCL, 33 nM Qdots-streptavidin on biotinylated-BSA coated gold disk, in serum, 655 nm, 217 degrees
[2] = target: Bovine-biotinamidocaproyl-labeled Albumin (biotinylated-BSA) (bovine) (UniProt P02769); experiment: MA-SPCL, 33 nM Qdots-streptavidin on biotinylated-BSA coated gold disk, in whole blood, 655 nm, 217 degrees
[3] = target: Bovine-biotinamidocaproyl-labeled Albumin (biotinylated-BSA) (bovine) (UniProt P02769); experiment: MA-SPCL, 33 nM Qdots-streptavidin on biotinylated-BSA coated gold disk, emission at 217 degrees; similar after 30 min at room temperature

UniProt P02769, sequence (P02769 25-607 limits assumed): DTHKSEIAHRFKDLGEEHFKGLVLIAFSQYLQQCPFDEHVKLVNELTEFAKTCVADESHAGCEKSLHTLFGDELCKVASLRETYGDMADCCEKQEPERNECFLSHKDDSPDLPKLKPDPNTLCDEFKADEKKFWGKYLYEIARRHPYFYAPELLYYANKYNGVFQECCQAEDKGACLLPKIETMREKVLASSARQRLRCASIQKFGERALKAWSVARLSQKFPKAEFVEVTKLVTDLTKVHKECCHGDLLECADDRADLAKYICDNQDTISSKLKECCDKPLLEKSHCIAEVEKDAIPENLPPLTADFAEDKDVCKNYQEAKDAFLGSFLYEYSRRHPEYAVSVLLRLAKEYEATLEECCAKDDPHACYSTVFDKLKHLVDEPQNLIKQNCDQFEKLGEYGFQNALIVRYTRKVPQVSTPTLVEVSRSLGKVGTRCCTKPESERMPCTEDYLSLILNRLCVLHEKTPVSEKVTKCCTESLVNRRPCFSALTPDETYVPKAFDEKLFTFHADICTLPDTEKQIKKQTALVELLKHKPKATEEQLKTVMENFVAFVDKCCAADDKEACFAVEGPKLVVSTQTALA

peak luminescence intensity in serum relative to buffer [1]: 75% | peak luminescence intensity in whole blood relative to buffer [2]: 20% | final luminescence intensity [3]: 150 au
Substance: Quantum dot 655-labeled streptavidin (Qdots-streptavidin) (from UniProt P22629 37-163)
